Tested on: Candida albicans FP633
Experiment: Survival of neutropenic mice with disseminated candidiasis (G-CSF and Test Compound, alone and combined)
Format: in vivo, ICR mice
Conditions: C. albicans, day 6 after infection
Experimental: Disseminated candidiasis were induced in ICR mice by the intravenous inoculation of 0.2 ml of cell suspension of Candida albicans FP633 via their lateral tail veins. Cyclophosphamide was administered intraperitoneally at 200 mg/kg 4 days before and 1 day after infection. G-CSF was administered intraperitoneally once daily for 5 days starting at 3 days before infection. Test Compound was administered once daily for 4 days starting at 1 hour after infection by intravenous injection. The survival rate (%) was calculated at 6 days after infection.
1) Survival rate of neutropenic mice infected with C. albicans on day 6 after infection

Row | Molecule | Survival rate (Test Compound 0.2 mg/kg i.v. once daily for 4 days, G-CSF 0 μg/kg, cyclophosphamide-treated neutropenic ICR mice) [%] | Survival rate (G-CSF 2.5 μg/kg i.p. once daily for 5 days, Test Compound 0 mg/kg, neutropenic ICR mice) [%] | Survival rate (G-CSF 5 μg/kg i.p. once daily for 5 days, Test Compound 0 mg/kg, neutropenic ICR mice) [%] | Survival rate (G-CSF 10 μg/kg i.p. once daily for 5 days, Test Compound 0 mg/kg, neutropenic ICR mice) [%]
1 | CCCCCOc1ccc(-c2cc(-c3ccc(C(=O)NC4CC(O)C(O)NC(=O)C5C(O)C(C)CN5C(=O)C(C(O)CC(N)=O)NC(=O)C(C(O)C(O)c5ccc(O)c(OS(=O)(=O)[O-])c5)NC(=O)C5CC(O)CN5C(=O)C(C(C)O)NC4=O)cc3)no2)cc1.[Na+] (stereo not shown) [Test Compound] | 25 | – | – | –
2 | G-CSF: granulocyte colony stimulating factor, stimulates the production of white blood cells (protein, UniProt P09919 31-207, looked up) Granulocyte …: TPLGPASSLPQSFLLKCLEQVRKIQGDGAALQEKLVSECATYKLCHPEELVLLGHSLGIPWAPLSSCPSQALQLAGCLSQLHSGLFLYQGLLQALEGISPELGPTLDTLQLDVADFATTIWQQMEELGMAPALQPTQGAMPAFASAFQRRAGGVLVASHLQSFLEVSYRVLRHLAQP | – | 0 | 25 | 50
